According to US7097986 (dated 2006):

Molecular target: T1, VEGFR-1/Ig (human, UniProt P17948)
T1 chain: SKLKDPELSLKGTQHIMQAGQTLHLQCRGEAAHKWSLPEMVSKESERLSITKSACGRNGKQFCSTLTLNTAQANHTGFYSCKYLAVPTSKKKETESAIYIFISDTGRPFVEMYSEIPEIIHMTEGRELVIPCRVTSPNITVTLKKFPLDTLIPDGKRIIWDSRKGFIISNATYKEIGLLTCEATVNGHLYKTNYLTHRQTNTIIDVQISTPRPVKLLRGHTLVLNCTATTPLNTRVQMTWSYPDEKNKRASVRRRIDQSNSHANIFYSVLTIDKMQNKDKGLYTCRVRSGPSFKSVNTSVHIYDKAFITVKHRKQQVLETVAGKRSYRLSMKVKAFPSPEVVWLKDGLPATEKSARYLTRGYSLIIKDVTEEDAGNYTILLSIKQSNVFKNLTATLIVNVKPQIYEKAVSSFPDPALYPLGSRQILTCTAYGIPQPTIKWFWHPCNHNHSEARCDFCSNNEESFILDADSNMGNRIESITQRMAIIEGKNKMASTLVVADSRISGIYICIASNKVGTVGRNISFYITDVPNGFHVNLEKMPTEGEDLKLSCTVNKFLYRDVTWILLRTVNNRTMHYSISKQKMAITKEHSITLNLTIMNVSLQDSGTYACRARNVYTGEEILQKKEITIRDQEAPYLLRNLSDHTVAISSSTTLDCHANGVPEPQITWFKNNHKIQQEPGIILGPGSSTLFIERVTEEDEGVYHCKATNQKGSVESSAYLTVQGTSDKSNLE
Experiment: ELISA

binding result: no binding
B1: VEGF-DΔNΔC (protein)
chain: FYDIETLKVIDEEWQRTQCSPRETCVEVASELGKSTNTFFKPPCVNVFRCGGCCNEESLICMNTSTSYISKQLFEISVPLTSVPELVPVKVANHTGCKCLPTAPRHPYS
